Assay results: patent US20230416361A1

B1: anti-CD200R antibody clone 21.3.1 (mIgG1k isotype) (antibody, V domains shown)
VH: QVQLQQPGSELVRPGASVKLSCKASGHTFTSYWMHWVKQRPGQGLEWIGNIYPGSGSINYDEKFKSKAKLTVDTSSRTAYMQLSSLTSEDSAVYYCLTMTGTSWGQGTLVTVSA
VL: DVQMIQSPSSLSASLGDIVTMTCQASQGTPINLHWFQQKPGKAPKLLISGASNLEDGVPSRFSGSRYGTAFTLTISSLEDEDMATYFCLQFTYIPWTFGGGTKLEIKR
B2: hu2131_Q1E_M99G hIgG1k P238D (antibody, V domains shown)
VH: EVQLVQSGAEVKKPGASVKVSCKASGHTFTSYWMHWVRQAPGQGLEWMGNIYPGSGSINYDEKFQGRVTMTADTSTSTVYMELSSLRSEDTAVYYCLTGTGTSWGRGTLVTVSS
VL: DIQMTQSPSSLSVSVGDRVTITCQASQGTPINLHWFQQKPGKAPKLLISGASNLESGVPSRFSGSGSGTEFTFTISSLQPEDAATYYCLQFTYIPWTFGQGTKLEIKR
B3: Antibody I-4P (antibody, human IgG4 S228P, kappa, V domains shown)
VH: QVQLVQSGAEVKKPGASVKVSCKASGFSFSSGYYMAWVRQAPGQGLEWMGLIGVGSGSLWYAQKFQGRVTMTRDTSTSTVYMELSSLRSEDTAVYYCARHFALSDPFNLWGQGTLVTVSS
VL: EIVLTQSPDFQSVTPKEKVTITCQASESIDSYLLWYQQKPDQSPKLLIKQASTLASGVPSRFSGSGSGTDFTLTINSLEAEDAATYYCQNYYDISSNDFGGGTKVEIKR

Columns and labels:
[1] = biological target: human CD200R expressed on cells (human) (UniProt Q8TD46); assay: cell-based or functional assay
[2] = biological target: human CD200R expressed on cells (human) (UniProt Q8TD46)
[3] = biological target: human CD200R expressed on cells (human) (UniProt Q8TD46); assay: flow cytometry on Jurkat T cells expressing human CD200R, 24 h at 37 C, PE anti-hIgG secondary
[4] = biological target: extracellular domain of human CD200R (Met29-Leu243) (human) (UniProt Q8TD46); assay: SPR (Biacore), antibody captured by anti-human Fc, CD200R extracellular domain injected, single cycle kinetics, 25 C
[5] = biological target: human CD200R expressed on cells (human) (UniProt Q8TD46); assay: flow cytometry on Jurkat T cells lentivirally expressing human CD200R, 24 h at 37 C, PE anti-hIgG secondary antibody, geometric MFI, non-linear curve fit

Row | Binder | Average % inhibition of SEAP activity at Log [Antibody], M = -8.18 [1] [%] | Average % inhibition of SEAP activity at Log [Antibody], M = -8.8 [1] [%] | Average % inhibition of SEAP activity at Log [Antibody], M = -9.57 [1] [%] | Average % inhibition of SEAP activity at Log [Antibody], M = -10.27 [1] [%] | Average % inhibition of SEAP activity at Log [Antibody], M = -10.9 [1] [%] | Average % inhibition of SEAP activity at Log [Antibody], M = -11.6 [1] [%] | Average % inhibition of SEAP activity at Log [Antibody], M = -12.3 [1] [%] | IC50 of inhibition of NF-kB-inducible SEAP reporter activity in CD200R-expressing THP-1 dual cells [1] [nM] | average maximal percentage inhibition (Emax) of SEAP activity [1] [%] | EC50 of DOK2 recruitment to CD200R, enzyme fragment complementation luminescence, PathHunter Jurkat CD200R cells co-cultured with FcgRIIb-expressing HEK293 cells [2] [nM] | EC50 of Dok2 recruitment to human CD200R (enzyme fragment complementation, PathHunter Jurkat CD200R cells co-cultured with FcγRIIb HEK293 cells) [1] [nM] | EC50 [3] [nM] | Kd [4] [nM] | koff [4] [s⁻¹] | kon [4] [M⁻¹ s⁻¹] | EC50 [5] [nM]
1 | B1 | 35.3 | 28.3 | 23.4 | 9.8 | 1.1 | 1 | 1.7 | 0.141 | 33.2 | – | – | – | – | – | – | –
2 | B2 | – | – | – | – | – | – | – | – | – | 0.437 | 0.44 | 0.53 | < 0.0193 | < 1e-05 | 517000 | –
3 | B3 | 22.3 | 20.9 | 16.1 | 7.7 | 3.2 | 2.2 | 3.1 | 0.134 | 19.9 | 1.14 | 1.1 | 3.4 | – | – | – | 3.43
